Data from PMC9021610.

Tests used:
[1] = target: nsp12 (RdRp catalytic subunit, Sf9);nsp7;nsp8 (SARS-CoV-2;SARS-CoV-2;SARS-CoV-2, UniProt P0DTD1;P0DTD1;P0DTD1 4393-5324;3860-3942;3943-4140, ||); experiment: EMSA; conditions: protein: recombinant;recombinant;recombinant; tags: 6xHis (Results: C-terminal; Methods: His tag after 5' ATG);6xHis (Results: C-terminal; legend: His6-nsp7);6xHis (Results: C-terminal; legend: His6-nsp8); copies: 1;1;2; label: 5'-biotin on strand 1 (S1); 5' overhang 10 nt (U10) on strand 2
[2] = target: nsp12 (RdRp catalytic subunit, Sf9) (SARS-CoV-2, UniProt P0DTD1 4393-5324); experiment: EMSA; nsp12 alone; conditions: protein: recombinant; tags: 6xHis (Results: C-terminal; Methods: His tag after 5' ATG); label: 5'-biotin on strand 1 (S1); 5' overhang 10 nt (U10) on strand 2

B1: S1*/S2 RNA primer/template (dsRNA)
RNA 1: GCUAUGUGAGAUUAAGAAUU
RNA 2: UUUUUUUUUUAAUUCUUAAUCUCACAUAGC
[1]
  binding result: binds
[2]
  binding result: binds
